Reference: patent publication EP2778173A1 (dated 2014)

Target: T1, recombinant EF produced in our laboratory (Bacillus anthracis, UniProt P40136 34-800)
T1 sequence: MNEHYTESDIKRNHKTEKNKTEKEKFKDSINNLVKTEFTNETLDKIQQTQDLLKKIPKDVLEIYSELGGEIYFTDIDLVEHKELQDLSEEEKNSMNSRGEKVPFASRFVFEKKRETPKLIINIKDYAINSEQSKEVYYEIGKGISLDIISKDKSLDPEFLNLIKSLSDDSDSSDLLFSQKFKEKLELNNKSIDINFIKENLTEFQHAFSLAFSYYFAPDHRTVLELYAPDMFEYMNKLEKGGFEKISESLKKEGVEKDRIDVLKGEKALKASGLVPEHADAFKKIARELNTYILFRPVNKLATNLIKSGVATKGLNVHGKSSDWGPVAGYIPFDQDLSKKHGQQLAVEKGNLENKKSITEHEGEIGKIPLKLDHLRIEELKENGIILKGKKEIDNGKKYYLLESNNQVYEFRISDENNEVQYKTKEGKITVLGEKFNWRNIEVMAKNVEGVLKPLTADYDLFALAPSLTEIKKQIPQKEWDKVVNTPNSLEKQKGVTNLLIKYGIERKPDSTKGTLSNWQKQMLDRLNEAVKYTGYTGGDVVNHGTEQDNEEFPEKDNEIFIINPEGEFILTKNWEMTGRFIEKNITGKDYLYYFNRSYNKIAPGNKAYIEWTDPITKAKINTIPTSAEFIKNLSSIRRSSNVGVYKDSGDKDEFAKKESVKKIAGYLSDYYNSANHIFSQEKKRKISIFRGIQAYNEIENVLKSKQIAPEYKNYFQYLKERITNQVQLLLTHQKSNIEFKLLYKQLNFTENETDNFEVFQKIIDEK
Test: SPR (Biacore X), scFv 2LF on CM5 chip, Native EF in solution; Table 2

B1: scFv 2LF (scFv, V domains shown)
VH: QVQLVESGGGVVQPGRSLRLSCAASGFAFDSTAMHWVRQAPGKGLEWVAVISTGGSTYYADSVKGRFTISRDNSNNTLYLQMNSLRAEDTAVYYCAKAVRGYIGSRGPLDVWGQGTMVTVSS
VL: DIQMTQSPSSVSASVGDRVTITCRASQGISSWLAWYQQKPGKAPKLLIYKASSLQSGVPSRFSGSGSGTDFTLTISSLQPEDFATYYCQQYSTSPITFGGGTKVEIK
B1 gave a koff of 0.00051 s⁻¹.
